Results from patent US20100150834A1, “HIGH AFFINITY EPHB RECEPTOR BINDING COMPOUNDS AND METHODS OF USE THEREOF” (priority 2006, published 2010).
No end group written: not given here.

Tests used:
[1] = test system: EphB1; assay: EphB receptor specificity (% binding), Table 1; conditions: binding to EphB1
[2] = biological target: EphB2 (Homo sapiens, UniProt P29323); assay: EphB receptor specificity (% binding), Table 1; conditions: binding to EphB2
[3] = biological target: EphB3 (Homo sapiens, UniProt P54753); assay: EphB receptor specificity (% binding), Table 1; conditions: binding to EphB3
[4] = biological target: T1, EphB4 (Mus musculus, UniProt P54761); assay: EphB receptor specificity (% binding), Table 1; conditions: binding to EphB4
T1 sequence (P54761 16-987): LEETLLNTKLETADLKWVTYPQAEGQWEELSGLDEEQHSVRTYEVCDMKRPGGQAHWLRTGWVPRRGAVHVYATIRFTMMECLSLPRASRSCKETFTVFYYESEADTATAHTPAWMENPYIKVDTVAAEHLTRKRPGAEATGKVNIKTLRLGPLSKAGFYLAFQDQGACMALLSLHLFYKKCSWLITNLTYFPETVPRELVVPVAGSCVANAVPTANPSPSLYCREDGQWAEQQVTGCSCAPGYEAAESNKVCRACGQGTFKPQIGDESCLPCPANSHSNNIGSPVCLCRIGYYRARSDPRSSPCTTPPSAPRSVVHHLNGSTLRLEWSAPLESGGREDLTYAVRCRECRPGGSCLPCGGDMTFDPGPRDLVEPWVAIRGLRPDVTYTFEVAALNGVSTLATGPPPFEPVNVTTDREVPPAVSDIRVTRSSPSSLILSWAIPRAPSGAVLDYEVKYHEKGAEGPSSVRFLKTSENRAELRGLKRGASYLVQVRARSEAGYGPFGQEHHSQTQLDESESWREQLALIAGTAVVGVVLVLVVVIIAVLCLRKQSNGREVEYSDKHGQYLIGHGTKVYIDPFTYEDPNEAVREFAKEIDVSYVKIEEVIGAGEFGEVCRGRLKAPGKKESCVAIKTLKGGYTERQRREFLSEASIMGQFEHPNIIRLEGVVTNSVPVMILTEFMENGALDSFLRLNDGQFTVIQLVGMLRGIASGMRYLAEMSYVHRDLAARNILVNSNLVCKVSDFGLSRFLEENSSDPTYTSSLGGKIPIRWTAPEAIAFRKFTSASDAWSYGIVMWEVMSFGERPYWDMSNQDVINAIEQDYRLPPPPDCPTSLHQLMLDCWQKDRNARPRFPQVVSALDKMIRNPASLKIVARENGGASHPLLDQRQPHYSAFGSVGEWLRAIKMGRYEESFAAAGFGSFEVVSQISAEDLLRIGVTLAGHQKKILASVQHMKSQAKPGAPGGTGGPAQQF

[5] = biological target: T2, EphB6 (Homo sapiens, UniProt O15197); assay: EphB receptor specificity (% binding), Table 1; conditions: binding to EphB6
T2 sequence (O15197 32-1021): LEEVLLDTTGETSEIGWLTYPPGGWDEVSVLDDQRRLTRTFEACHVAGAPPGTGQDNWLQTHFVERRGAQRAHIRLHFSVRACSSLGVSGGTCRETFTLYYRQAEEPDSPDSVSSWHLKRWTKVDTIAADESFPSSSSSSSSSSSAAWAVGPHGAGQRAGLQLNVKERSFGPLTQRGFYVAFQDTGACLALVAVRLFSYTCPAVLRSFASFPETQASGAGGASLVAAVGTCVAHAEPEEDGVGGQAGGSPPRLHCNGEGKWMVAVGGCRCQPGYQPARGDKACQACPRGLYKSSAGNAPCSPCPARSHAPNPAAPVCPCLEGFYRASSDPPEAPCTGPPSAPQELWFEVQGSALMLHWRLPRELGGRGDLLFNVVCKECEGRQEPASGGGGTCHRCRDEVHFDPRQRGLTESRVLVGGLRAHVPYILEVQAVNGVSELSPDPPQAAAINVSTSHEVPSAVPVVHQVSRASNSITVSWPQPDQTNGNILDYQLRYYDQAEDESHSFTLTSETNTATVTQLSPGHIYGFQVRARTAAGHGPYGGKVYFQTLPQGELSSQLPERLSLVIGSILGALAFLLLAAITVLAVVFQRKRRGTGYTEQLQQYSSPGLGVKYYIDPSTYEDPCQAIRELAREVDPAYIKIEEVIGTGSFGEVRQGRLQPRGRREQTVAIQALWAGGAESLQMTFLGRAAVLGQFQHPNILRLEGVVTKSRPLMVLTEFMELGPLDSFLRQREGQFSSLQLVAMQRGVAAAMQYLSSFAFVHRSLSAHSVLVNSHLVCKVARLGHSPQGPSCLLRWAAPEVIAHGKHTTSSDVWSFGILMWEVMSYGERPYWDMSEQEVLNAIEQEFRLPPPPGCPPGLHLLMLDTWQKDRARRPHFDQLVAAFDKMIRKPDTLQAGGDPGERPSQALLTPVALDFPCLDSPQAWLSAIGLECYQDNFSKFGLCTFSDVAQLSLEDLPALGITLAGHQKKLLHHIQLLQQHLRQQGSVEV

[6] = biological target: T3, murine EphB4 ectodomain (Mus musculus, UniProt P54761); assay: Inhibition of murine ephrin-B2 AP binding to immobilized murine EphB4 ectodomain (Example 4)
T3 construct: Wells coated with the murine EphB4 ectodomain
T3 sequence (P54761 16-539 limits assumed): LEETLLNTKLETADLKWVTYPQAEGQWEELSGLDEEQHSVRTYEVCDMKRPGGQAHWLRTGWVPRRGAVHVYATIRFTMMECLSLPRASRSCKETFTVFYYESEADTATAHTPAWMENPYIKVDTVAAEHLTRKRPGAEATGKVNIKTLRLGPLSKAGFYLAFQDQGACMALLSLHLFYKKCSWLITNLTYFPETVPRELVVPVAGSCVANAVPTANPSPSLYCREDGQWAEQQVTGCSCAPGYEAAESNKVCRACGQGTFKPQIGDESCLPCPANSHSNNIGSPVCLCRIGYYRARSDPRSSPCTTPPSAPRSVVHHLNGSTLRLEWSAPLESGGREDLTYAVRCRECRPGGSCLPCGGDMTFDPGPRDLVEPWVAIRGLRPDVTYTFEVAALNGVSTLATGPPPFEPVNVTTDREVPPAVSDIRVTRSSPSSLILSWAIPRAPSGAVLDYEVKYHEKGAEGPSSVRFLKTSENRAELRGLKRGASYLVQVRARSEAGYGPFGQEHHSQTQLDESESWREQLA
Method: Wells coated with the murine EphB4 ectodomain were incubated with murine ephrin-B2 AP and different concentrations of the indicated peptides. Ephrin-B2 AP binding to the immobilized EphB4 receptor ectodomain was measured in the presence of various concentrations of the peptides and detected by measuring alkaline phosphatase activity. Ephrin-B2 AP binding in the presence of peptide was normalized to binding in the absence of peptide.

[7] = biological target: T4, murine EphB4 (Mus musculus, UniProt P54761); assay: TNYL-RAW Fc immobilized on protein A ELISA plates, binding of murine EphB4 AP; conditions: purified from HEK293 cell culture supernatants (FIG. 5B)
T4 construct: purchased R&D Systems 446-B4-200
T4 sequence (P54761 16-539 limits assumed): T3 sequence (P54761 16-539 limits assumed)

[8] = biological target: T5, EphB4 (Homo sapiens, UniProt P54760); assay: EphB4 tyrosine phosphorylation in MDA-MB-231 breast cancer cells (immunoprecipitation, PTyr immunoblot); assay type: cell-based; conditions: 2 μg/ml, clustered with anti-Fc antibodies, 20 minutes, MDA-MB-231 cells (FIG. 5E)
T5 construct: endogenous in cells; host or cells: MDA-MB-231 breast cancer cells
T5 sequence (P54760 16-987): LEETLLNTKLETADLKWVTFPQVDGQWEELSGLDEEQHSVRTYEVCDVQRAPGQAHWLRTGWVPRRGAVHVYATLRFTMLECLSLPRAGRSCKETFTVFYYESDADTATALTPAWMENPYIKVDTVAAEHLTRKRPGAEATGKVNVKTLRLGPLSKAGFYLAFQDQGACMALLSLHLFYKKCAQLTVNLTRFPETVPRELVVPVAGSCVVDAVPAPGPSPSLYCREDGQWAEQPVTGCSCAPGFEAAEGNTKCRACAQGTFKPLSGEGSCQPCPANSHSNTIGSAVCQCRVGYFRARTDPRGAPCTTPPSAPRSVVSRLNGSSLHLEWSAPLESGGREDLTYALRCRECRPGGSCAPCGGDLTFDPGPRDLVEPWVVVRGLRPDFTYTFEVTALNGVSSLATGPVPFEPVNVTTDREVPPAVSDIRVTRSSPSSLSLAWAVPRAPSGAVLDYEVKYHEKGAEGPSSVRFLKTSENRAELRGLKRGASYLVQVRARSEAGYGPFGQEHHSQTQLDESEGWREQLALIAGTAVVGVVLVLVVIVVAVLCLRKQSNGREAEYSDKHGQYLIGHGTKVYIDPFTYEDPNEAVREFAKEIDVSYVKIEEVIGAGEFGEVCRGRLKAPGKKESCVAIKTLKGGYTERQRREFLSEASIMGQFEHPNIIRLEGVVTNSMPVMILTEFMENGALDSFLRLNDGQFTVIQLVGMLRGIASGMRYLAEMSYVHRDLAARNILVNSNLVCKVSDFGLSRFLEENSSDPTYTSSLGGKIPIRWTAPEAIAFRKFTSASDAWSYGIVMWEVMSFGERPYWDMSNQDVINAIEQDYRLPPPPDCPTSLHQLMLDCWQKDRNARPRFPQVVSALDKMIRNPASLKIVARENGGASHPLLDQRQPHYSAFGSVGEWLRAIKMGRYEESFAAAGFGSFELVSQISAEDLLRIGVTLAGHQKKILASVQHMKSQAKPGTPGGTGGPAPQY
Method: EphB4 tyrosine phosphorylation was detected in EphB4 immunoprecipitates by immunoblotting with anti-phosphotyrosine antibodies (PTyr). […] Cells were also stimulated with 1 μg/ml ephrin-B2 Fc or human Fc as positive and negative controls, respectively.

[9] = Half-life of TNYL-RAW Fc in HEK293 cell culture medium; assay type: in vitro ADME; conditions: purified from medium in which HEK293 cells were grown for 4 days

EphB3, sequence (P54753 34-998): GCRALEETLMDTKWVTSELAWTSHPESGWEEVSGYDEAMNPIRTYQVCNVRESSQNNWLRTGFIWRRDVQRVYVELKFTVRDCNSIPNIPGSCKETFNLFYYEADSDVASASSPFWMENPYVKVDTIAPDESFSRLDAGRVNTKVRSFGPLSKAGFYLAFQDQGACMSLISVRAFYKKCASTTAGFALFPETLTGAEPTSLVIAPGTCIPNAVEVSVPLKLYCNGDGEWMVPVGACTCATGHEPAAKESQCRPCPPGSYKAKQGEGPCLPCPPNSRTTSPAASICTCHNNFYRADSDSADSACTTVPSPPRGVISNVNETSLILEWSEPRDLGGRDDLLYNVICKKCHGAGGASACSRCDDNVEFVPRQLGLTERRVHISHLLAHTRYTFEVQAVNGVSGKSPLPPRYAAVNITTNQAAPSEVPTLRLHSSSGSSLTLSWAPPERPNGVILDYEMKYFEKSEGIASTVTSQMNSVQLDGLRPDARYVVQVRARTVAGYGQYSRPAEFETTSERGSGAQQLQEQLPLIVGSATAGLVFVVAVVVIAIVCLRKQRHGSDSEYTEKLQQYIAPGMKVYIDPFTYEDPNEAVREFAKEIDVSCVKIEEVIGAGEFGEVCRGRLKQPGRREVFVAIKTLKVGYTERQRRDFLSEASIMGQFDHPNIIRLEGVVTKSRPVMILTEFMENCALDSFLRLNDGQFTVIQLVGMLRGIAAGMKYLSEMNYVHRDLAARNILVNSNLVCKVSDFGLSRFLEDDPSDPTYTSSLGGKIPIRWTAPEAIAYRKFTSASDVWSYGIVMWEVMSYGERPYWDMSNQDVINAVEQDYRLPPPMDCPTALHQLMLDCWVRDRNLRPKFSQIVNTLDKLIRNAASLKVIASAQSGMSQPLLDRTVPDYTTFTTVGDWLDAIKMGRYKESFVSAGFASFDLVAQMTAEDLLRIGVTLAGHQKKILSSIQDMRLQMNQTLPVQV
EphB2, sequence (P29323 19-1055): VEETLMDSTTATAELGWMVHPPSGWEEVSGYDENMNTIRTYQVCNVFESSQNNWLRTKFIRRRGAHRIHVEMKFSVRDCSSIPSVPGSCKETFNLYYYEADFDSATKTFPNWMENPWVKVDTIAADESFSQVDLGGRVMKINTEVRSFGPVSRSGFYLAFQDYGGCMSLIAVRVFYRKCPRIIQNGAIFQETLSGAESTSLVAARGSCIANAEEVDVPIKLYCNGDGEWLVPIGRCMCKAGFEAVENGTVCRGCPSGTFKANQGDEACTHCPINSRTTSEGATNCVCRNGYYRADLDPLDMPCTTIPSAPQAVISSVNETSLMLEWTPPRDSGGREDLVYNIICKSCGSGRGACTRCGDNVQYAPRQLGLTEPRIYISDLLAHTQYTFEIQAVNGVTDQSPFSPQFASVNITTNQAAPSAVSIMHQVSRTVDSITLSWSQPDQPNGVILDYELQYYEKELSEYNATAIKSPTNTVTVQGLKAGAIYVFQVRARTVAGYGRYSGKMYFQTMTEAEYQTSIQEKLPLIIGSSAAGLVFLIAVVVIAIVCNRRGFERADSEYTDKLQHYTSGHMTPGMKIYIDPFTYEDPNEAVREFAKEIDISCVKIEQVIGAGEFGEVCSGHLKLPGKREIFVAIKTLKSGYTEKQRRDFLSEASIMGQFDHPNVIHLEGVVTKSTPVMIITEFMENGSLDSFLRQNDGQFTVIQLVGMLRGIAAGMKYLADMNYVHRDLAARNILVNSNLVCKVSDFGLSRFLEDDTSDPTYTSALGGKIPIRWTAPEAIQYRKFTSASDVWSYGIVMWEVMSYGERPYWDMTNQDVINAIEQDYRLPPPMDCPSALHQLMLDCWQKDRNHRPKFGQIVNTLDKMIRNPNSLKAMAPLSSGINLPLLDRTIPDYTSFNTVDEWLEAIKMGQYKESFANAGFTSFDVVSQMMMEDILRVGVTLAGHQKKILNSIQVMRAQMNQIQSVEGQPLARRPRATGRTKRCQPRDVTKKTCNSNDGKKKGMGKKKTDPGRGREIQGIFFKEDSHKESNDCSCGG

**Q.** For “26 (LPHGPVAAWDA; EphB4-binding peptide) [compound 26]”, which “EphB Receptor Specificity (% Binding) B1” value [1] is on record?
**A.** 2%

**Q.** What about the “EphB Receptor Specificity (% Binding) B2” value [2] of the same substance?
**A.** 15%

**Q.** And the “EphB Receptor Specificity (% Binding) B3” value [3]?
**A.** 2%

**Q.** What about the “EphB Receptor Specificity (% Binding) B4” value [4] of the same substance?
**A.** 100%

**Q.** And the “EphB Receptor Specificity (% Binding) B6” value [5]?
**A.** 4%

**Q.** For LFSPNGPIARAW [L-RAW], which IC50 [6] is on record?
**A.** > 10 µM

**Q.** What does the source list for “TNYL-RAW Fc fusion protein: TNYL-RAW peptide, GSGSK linker and human Fc of IgG1; two fusion proteins dimerize via the Fc domain (TNYLFSPNGPIARAWGSGSK-{human IgG1 Fc}; also: dimerizes via the Fc domain)”?
**A.** binding to EphB4 AP [7]: able to bind EphB4 AP with substantial affinity; EphB4 tyrosine phosphorylation [8]: did not stimulate EphB4 tyrosine phosphorylation; half-life [9]: appears to be longer than that of the synthetic peptide without Fc
